Reference: patent publication US20250186604A1, “ANTI-PSMA ANTIBODY CONJUGATES” (ADC THERAPEUTICS SA, priority 2023, published 2025)

Molecular target: Human PSMA (Prostate-Specific Membrane Antigen) (human) (UniProt Q04609)
Test: ELISA, human PSMA coated on plate, anti-human-IgG-HRP detection

Human PSMA (Prostate-Specific Membrane Antigen) (human), sequence (Q04609 44-750 limits assumed): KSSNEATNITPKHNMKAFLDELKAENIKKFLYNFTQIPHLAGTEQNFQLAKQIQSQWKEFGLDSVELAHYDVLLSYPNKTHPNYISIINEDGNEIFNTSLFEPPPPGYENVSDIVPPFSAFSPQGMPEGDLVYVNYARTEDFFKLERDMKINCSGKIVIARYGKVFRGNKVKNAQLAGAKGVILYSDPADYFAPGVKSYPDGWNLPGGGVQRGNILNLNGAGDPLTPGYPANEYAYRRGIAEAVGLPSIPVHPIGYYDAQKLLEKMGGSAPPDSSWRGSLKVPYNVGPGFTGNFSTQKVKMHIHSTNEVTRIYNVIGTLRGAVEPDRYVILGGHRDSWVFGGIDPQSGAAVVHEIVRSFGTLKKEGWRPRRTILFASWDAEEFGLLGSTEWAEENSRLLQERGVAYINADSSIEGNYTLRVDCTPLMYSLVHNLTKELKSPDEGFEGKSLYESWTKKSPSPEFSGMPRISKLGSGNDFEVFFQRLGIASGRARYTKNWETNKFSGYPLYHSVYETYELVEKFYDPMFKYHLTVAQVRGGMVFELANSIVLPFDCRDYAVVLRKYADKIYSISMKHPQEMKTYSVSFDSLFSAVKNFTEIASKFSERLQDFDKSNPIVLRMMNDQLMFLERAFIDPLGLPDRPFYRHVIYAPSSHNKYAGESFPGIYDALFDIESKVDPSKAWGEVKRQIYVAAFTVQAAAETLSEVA

Q: How did the EC50 turn out when J591 (antibody) was run?
A: The EC50 was 0.271 nM.
